Square brackets hold non-standard residues; d marks the D form.
Target: αvβ3 integrin on TNF-α-treated bovine aortic endothelial cells (BAEC) (bovine) (UniProt P80746)
Assay: attachment under flow in a microfluidic device coated with TNF-α-treated BAEC cells; reference RGD-targeted nanospheres

B1: RGD-NC nanoparticle (integrin-targeted nanochain of four iron oxide nanospheres carrying c(RGDfC) peptides on PEG) (peptide)
peptide: cyclo(RGD[dF]C)
modifications: not fully specified (residue 5); printed as cyclo (Arg-Gly-Asp-D-Phe-Cys); also: nanochain also tagged with VivoTag 680
  fold higher attachment compared to RGD-targeted nanospheres (after 5 min): 9.5 fold
  fold higher attachment compared to RGD-targeted nanospheres (after 20 min): 2.9 fold
